One block for each binder: values may come before it.
B1: Rad51 (natural protein, S. pombe, UniProt P36601 1-365, looked up)
chain: MADTEVEMQVSAADTNNNENGQAQSNYEYDVNVQDEEDEAAAGPMPLQMLEGNGITASDIKKIHEAGYYTVESIAYTPKRQLLLIKGISEAKADKLLGEASKLVPMGFTTATEYHIRRSELITITTGSKQLDTLLQGGVETGSITELFGEFRTGKSQICHTLAVTCQLPIDMGGGEGKCLYIDTEGTFRPVRLLAVADRYGLNGEEVLDNVAYARAYNADHQLELLQQAANMMSESRFSLLVVDSCTALYRTDFSGRGELSARQMHLARFMRTLQRLADEFGIAVVITNQVVAQVDGISFNPDPKKPIGGNILAHSSTTRLSLRKGRGEQRICKIYDSPCLPESEAIFAINSDGVGDPKEIIAPV
notes: Rad51 recombinase, S. pombe; also called S. pombe Rad51; Rad51-ssDNA filament

Tests used:
[1] = biological target: T1, Swi5–Sfr1 complex (wildtype, hexahistidine-tagged Sfr1) (S. pombe, UniProt Q9USV1 1-299; Q9UUB7 1-85); test: pull-down; in solution; nickel resin holds hexahistidine-tagged S5S1; 500 nM each protein; 30 mM Tris-Cl 7.5, 100 mM KCl, 5 mM MgCl2, 1 mM ATP, 0.25 mM TCEP, 5% glycerol, 0.05% Tween-20; 30 °C 15 min, then resin 1 h at 4 °C; SDS-PAGE, Coomassie; settings: both partners purified
T1 construct: Sfr1, S. pombe; Swi5, S. pombe; Made in E. coli, so it serves as the unphosphorylated sample; also called S5S1; wildtype S5S1; source: E. coli BL21 DE3 (pRARE2), Sfr1 co-expressed with Swi5 from pET11b, purified (His-tag column, HiTrap Q, Superdex 200); not shown: His6, N-terminal, kept
T1 sequence (looked up) 1: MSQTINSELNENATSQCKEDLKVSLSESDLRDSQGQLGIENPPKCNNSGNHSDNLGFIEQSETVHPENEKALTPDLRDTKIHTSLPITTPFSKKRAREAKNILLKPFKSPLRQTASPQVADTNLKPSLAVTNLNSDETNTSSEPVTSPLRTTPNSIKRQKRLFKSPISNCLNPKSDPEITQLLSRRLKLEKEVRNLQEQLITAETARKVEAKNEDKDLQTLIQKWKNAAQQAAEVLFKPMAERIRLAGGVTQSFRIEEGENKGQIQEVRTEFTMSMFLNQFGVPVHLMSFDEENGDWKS
T1 sequence (looked up) 2: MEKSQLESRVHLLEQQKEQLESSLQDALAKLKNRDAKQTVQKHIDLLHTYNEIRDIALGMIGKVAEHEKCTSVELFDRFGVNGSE

[2] = biological target: T2, Swi5–Sfr1 nonphosphorylatable mutant complex (S5S1-NON) (S. pombe, UniProt Q9USV1 1-299; Q9UUB7 1-85, S24 to A | T73 to A | S109 to A | S116 to A | S165 to A); test: as above; settings: both partners purified
T2 construct: Sfr1, S. pombe, five S/T phosphosites (S24, T73, S109, S116, S165) mutated to A; Swi5, S. pombe; source: E. coli BL21 DE3 (pRARE2), Sfr1 co-expressed with Swi5 from pET11b, purified (His-tag column, HiTrap Q, Superdex 200); not shown: His6, N-terminal, kept
T2 sequence (looked up) 1: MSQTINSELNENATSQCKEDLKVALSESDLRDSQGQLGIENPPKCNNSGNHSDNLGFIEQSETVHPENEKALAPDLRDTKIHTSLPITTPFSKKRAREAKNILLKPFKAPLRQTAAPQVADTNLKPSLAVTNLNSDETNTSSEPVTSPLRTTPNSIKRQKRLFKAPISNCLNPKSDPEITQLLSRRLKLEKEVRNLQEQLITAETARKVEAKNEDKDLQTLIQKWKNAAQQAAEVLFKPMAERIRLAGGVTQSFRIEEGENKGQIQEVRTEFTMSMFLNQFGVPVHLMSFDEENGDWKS
T2 sequence (looked up) 2: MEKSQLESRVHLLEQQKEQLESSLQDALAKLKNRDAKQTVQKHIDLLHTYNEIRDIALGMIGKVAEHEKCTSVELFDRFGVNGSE

Rad51 [3] = biological target: B1; test: pull-down; filament binding assay: Rad51 (3.33 μM) filaments on circular ssDNA (10 μMnt) held on streptavidin beads through a biotinylated oligonucleotide; 3.33 μM S5S1 added, 5 min 37 °C; 25 mM Tris-Cl 7.5, 100 mM NaCl, 3.5 mM MgCl2, 2 mM ATP, 0.5 mM TCEP, 5% glycerol, 0.05% Tween-20; Sfr1 signal normalised to Rad51, relative to wildtype, n = 3; settings: both partners purified
Rad51 [4] = biological target: T3, Rad51 (Schizosaccharomyces pombe, UniProt P36601 1-365); test: streptavidin pull-down; 2 mM ATP, 5 mM Mg2+; EMSA: 25 mM Hepes-KOH pH 7.5, 100 mM KCl, 3.5 mM MgCl2, 0.5 mM TCEP, 5% glycerol, 20 nM DNA, 37 C 15 min, 0.8% agarose in TAE at 4 C; pull-down: 25 mM Tris-Cl pH 7.5, 100 mM NaCl, 2 mM ATP, 5 mM MgCl2, 37 C; settings: protein: recombinant; label: 5' biotin
T3 sequence: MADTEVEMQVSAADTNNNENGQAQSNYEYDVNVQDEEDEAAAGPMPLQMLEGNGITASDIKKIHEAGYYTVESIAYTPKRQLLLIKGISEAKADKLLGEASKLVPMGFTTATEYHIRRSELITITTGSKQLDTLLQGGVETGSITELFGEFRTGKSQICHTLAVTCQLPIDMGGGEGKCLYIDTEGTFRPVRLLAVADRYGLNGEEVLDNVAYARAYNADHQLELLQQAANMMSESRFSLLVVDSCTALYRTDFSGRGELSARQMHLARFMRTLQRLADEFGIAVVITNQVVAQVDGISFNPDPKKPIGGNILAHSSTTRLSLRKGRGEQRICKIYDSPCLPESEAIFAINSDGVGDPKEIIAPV

[5] = biological target: T4, Rad51;Swi5-Sfr1 (S5S1) wild type (Schizosaccharomyces …, UniProt P36601;Q9UUB7;Q9USV1 1-365;1-85;1-299, |); test: streptavidin pull-down; ATP, Mg2+, Fbh1-Skp1; S5S1 antagonizes disruption; EMSA: 25 mM Hepes-KOH pH 7.5, 100 mM KCl, 3.5 mM MgCl2, 0.5 mM TCEP, 5% glycerol, 20 nM DNA, 37 C 15 min, 0.8% agarose in TAE at 4 C; pull-down: 25 mM Tris-Cl pH 7.5, 100 mM NaCl, 2 mM ATP, 5 mM MgCl2, 37 C; settings: protein: recombinant;recombinant; tags: ;N-terminal His6 on Sfr1; label: 5' biotin
T4 sequence 1: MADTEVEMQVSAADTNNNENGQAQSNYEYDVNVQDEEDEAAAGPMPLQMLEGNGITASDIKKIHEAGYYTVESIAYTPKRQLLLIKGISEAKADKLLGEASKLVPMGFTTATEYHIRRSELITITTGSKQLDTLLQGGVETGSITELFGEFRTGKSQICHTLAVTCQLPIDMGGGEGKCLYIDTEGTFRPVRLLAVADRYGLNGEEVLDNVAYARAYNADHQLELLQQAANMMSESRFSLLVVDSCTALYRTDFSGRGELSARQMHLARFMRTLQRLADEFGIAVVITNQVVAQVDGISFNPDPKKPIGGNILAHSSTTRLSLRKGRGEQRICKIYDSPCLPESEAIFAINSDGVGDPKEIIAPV
T4 sequence 2: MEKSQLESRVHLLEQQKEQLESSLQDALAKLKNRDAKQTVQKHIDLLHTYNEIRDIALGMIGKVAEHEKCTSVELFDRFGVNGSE
T4 sequence 3: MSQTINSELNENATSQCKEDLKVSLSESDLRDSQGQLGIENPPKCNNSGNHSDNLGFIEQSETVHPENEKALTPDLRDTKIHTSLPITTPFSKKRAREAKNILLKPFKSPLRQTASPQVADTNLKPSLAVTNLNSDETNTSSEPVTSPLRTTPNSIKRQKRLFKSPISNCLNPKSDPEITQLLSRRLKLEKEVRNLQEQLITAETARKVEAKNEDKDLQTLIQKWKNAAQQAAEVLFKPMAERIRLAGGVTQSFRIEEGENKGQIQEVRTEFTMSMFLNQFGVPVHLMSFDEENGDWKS

Rad51 [6] = biological target: T3, Rad51; test: negative-stain EM; 2 mM ATP, 5 mM Mg2+; EMSA: 25 mM Hepes-KOH pH 7.5, 100 mM KCl, 3.5 mM MgCl2, 0.5 mM TCEP, 5% glycerol, 20 nM DNA, 37 C 15 min, 0.8% agarose in TAE at 4 C; pull-down: 25 mM Tris-Cl pH 7.5, 100 mM NaCl, 2 mM ATP, 5 mM MgCl2, 37 C; settings: protein: recombinant
[7] = biological target: T4, Rad51;Swi5-Sfr1 (S5S1) wild type; test: negative-stain EM; 2 mM ATP, 5 mM Mg2+; longer filaments; EMSA: 25 mM Hepes-KOH pH 7.5, 100 mM KCl, 3.5 mM MgCl2, 0.5 mM TCEP, 5% glycerol, 20 nM DNA, 37 C 15 min, 0.8% agarose in TAE at 4 C; pull-down: 25 mM Tris-Cl pH 7.5, 100 mM NaCl, 2 mM ATP, 5 mM MgCl2, 37 C; settings: protein: recombinant;recombinant; tags: ;N-terminal His6 on Sfr1
[8] = biological target: T5, Swi5-Sfr1 (S5S1) wild type (Schizosaccharomyces pombe, UniProt Q9UUB7;Q9USV1 1-85;1-299); test: EMSA; 3.5 mM Mg2+; EMSA: 25 mM Hepes-KOH pH 7.5, 100 mM KCl, 3.5 mM MgCl2, 0.5 mM TCEP, 5% glycerol, 20 nM DNA, 37 C 15 min, 0.8% agarose in TAE at 4 C; pull-down: 25 mM Tris-Cl pH 7.5, 100 mM NaCl, 2 mM ATP, 5 mM MgCl2, 37 C; settings: protein: recombinant, tags: N-terminal His6 on Sfr1, copies: 1;1
T5 sequence 1: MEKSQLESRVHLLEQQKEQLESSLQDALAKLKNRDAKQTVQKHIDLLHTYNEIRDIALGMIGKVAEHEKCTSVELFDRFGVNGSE
T5 sequence 2: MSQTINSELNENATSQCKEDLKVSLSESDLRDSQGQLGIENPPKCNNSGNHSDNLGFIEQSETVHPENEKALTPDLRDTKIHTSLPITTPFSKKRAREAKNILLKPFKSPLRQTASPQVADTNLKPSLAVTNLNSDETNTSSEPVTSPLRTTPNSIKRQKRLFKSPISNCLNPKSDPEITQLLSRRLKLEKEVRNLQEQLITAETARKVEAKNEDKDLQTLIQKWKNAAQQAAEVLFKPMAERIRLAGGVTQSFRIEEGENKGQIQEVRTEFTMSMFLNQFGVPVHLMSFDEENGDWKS

Binder: B1
- binding result [1]: binds
- binding result [2]: binds

- fold reduction in coprecipitation with Rad51 filaments against wildtype S5S1 (Rad51 [3]): ~5 fold
B2: Swi5–Sfr1 phosphomimetic mutant complex (S5S1-PM) (complex, S. pombe)
chain 1: MSQTINSELNENATSQCKEDLKVDLSESDLRDSQGQLGIENPPKCNNSGNHSDNLGFIEQSETVHPENEKALDPDLRDTKIHTSLPITTPFSKKRAREAKNILLKPFKDPLRQTADPQVADTNLKPSLAVTNLNSDETNTSSEPVTSPLRTTPNSIKRQKRLFKDPISNCLNPKSDPEITQLLSRRLKLEKEVRNLQEQLITAETARKVEAKNEDKDLQTLIQKWKNAAQQAAEVLFKPMAERIRLAGGVTQSFRIEEGENKGQIQEVRTEFTMSMFLNQFGVPVHLMSFDEENGDWKS
chain 2: MEKSQLESRVHLLEQQKEQLESSLQDALAKLKNRDAKQTVQKHIDLLHTYNEIRDIALGMIGKVAEHEKCTSVELFDRFGVNGSE
notes: Sfr1, S. pombe, five S/T phosphosites (S24, T73, S109, S116, S165) mutated to D; Swi5, S. pombe; source: E. coli BL21 DE3 (pRARE2), Sfr1 co-expressed with Swi5 from pET11b, purified (His-tag column, HiTrap Q, Superdex 200); not shown: His6, N-terminal, kept

B3: BA655 100-mer ssDNA (ssDNA)
DNA: ATAAGGCCACGTATTTTGCAAGCTATTTAACTGGCGGCGATTGCGTACCCGACGACCAAAATTAGGGTCAACGCTACCTGTAGGAAGTGTCCGCATAAAG
- binding result (Rad51 [4]): binds
- binding result [5]: binds

B4: BA494 116-mer ssDNA (ssDNA)
DNA: TTCAATATCTGGTTGAACGGCGTCGCGTCGTAACCCAGCTTGGTAAGTTGGATTAAGCACTCCGTGGACAGATTTGTCATTGTGAGCATTTTCATCCCGAAGTTGCGGCTCATTCT
- binding result (Rad51 [6]): binds
- binding result [7]: binds

B5: BA663 80-mer ssDNA (ssDNA)
DNA: TTGATAAGAGGTCATTTTTGCGGATGGCTTAGAGCTTAATTGCTGAATCTGGTGCTGTAGCTCAACATGTTTTAAATATG
- binding result ([8]; label: 3' Cy5): binds

B6: BA663/BA664 80-bp dsDNA (dsDNA)
DNA 1: TTGATAAGAGGTCATTTTTGCGGATGGCTTAGAGCTTAATTGCTGAATCTGGTGCTGTAGCTCAACATGTTTTAAATATG
DNA 2: CATATTTAAAACATGTTGAGCTACAGCACCAGATTCAGCAATTAAGCTCTAAGCCATCCGCAAAAATGACCTCTTATCAA
- binding result ([8]; label: 3' Cy5 on BA663, blunt): binds
